From patent publication US20120014950A1 (Xencor, published 2012)
Where a chain is given by its changes, count along the chain named.

T1: human DR3-Fc fusion protein (human, UniProt Q93038 25-199)
T1 construct: also called hDR3-Fc; not shown: Fc portion
T1 sequence: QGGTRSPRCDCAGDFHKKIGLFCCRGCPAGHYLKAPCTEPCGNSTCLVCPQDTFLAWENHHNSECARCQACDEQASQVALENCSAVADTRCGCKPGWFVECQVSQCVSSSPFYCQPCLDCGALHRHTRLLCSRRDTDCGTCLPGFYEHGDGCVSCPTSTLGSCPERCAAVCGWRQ

T2: human DR3 receptor expressed on the cell surface (human, UniProt Q93038 25-417)
T2 construct: also called hDR3; TNFRSF25
T2 sequence: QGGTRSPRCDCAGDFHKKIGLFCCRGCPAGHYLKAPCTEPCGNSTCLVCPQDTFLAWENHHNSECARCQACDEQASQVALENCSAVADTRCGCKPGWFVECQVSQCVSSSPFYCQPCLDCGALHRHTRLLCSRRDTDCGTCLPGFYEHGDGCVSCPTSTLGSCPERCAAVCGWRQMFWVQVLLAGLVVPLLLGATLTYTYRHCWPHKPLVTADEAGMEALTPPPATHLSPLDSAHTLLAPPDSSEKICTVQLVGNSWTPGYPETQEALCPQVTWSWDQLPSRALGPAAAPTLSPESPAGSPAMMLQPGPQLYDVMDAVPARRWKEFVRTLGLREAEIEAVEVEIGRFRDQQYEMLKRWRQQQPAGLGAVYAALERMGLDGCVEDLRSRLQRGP

B1: H1.1L4-Fab (Fab, V domains shown)
VH: EVQLVESGGGLVKPGGSLRLSCAASGFTFTNYAMSWVRQAPGQRLEWVSTITSGGSYIYYLDSVKGRFTISRDNAKSTLYLQMNSLRAEDTAVYYCARRKDGNYYYAMDYWGQGTTVTVSS
VL: DIVLTQTPLSLSVTPGQPASISCRASESVDSYGNSFIHWYQQKPGQPPKLLIYRASNLESGIPARFSGSGSRTDFTLKISRVEAEDVGVYYCQQSYEDPWTFGGGTKLEIKR
B2: H1.1L1-Fab (Fab, V domains shown)
VH: B1 VH
VL: DIVLTQSPATLSLSPGERATLSCRASESVDSYGNSFIHWYQQKPGQPPKLLIYRASNLESGIPARFSGSGSRTDFTLTISSLEPEDFAVYYCQQSYEDPWTFGGGTKLEIKR
B3: H5.3L4-Fab (Fab, V domains shown)
VH: EVMLLQSGAEVKKPGASVKVSCKASGFTFTNYAMSWVRQAPGQRLEWVATITSGGSYIYYLDSVKGRFTISRDNAKSTLHLQMNSLRAEDTAVYYCARRKDGNYYYAMDYWGQGTTVTVSS
VL: B1 VL
B4: H1.1L2-Fab (Fab, V domains shown)
VH: B1 VH
VL: B2 VL with A9S, T10S, L13A, P15V, E17D, A19V, L21I, S22T, E83Q, V89T
B5: H0L0-Fab (Fab, V domains shown)
VH: EVMLVESGGGLVKPGGSLKLSCAASGFTFTNYAMSWVRQTPEKRLEWVATITSGGSYIYYLDSVKGRFTISRDNAKSTLYLQMSSLRSEDTAIYNCARRKDGNYYYAMDYWGQGTSVTVSS
VL: DIVLTQSPASLAVSLGQRATISCRASESVDSYGNSFIHWYQQKAGQPPKLLIYRASNLESGIPARFSGSGSRTDFTLTINPVEADDVATYYCQQSYEDPWTFGGGTKLEIKR
notes: also called 11H08-Fab; parental anti-DR3 molecule
B6: H0.1L0-Fab (Fab, V domains shown)
VH: B5 VH with N95Y
VL: B5 VL
B7: H4.2L2-Fab (Fab, V domains shown)
VH: B3 VH with E1Q, M3Q, L5V, A9S, V11L, Q43K, D73E, H80Y, A88T, V93L
VL: B2 VL with A9S, T10S, L13A, P15V, E17D, A19V, L21I, S22T, E83Q, V89T
B8: H5.3L2-Fab (Fab, V domains shown)
VH: B3 VH
VL: B2 VL with A9S, T10S, L13A, P15V, E17D, A19V, L21I, S22T, E83Q, V89T
B9: H1L2-Fab-HSA (Fab)
heavy: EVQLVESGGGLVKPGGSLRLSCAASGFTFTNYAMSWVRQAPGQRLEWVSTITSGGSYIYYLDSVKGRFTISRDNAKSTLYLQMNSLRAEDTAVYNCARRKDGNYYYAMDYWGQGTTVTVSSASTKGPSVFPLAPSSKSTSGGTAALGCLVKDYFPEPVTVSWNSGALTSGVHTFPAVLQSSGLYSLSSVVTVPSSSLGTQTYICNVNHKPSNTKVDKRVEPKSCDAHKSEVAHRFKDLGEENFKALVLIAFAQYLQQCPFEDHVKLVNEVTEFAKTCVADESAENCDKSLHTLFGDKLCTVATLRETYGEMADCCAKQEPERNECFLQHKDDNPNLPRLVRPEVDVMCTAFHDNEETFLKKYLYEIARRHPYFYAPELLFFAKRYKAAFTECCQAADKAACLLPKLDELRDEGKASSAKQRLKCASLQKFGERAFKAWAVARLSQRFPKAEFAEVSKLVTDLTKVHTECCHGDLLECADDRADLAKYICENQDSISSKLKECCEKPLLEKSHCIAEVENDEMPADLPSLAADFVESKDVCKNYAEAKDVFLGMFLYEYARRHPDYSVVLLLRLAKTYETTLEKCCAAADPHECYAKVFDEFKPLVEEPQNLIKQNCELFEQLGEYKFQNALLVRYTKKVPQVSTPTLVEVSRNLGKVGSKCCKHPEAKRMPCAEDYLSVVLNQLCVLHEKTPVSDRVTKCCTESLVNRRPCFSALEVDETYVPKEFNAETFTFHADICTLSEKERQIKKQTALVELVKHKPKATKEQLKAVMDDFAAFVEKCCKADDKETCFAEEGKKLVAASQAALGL
light: DIVLTQSPSSLSASVGDRVTITCRASESVDSYGNSFIHWYQQKPGQPPKLLIYRASNLESGIPARFSGSGSRTDFTLTISSLQPEDFATYYCQQSYEDPWTFGGGTKLEIKRTVAAPSVFIFPPSDEQLKSGTASVVCLLNNFYPREAKVQWKVDNALQSGNSQESVTEQDSKDSTYSLSSTLTLSKADYEKHKVYACEVTHQGLSSPVTKSFNRGEC
notes: also called AB13350-C1
B10: H5L2-Fab-HSA (Fab)
heavy: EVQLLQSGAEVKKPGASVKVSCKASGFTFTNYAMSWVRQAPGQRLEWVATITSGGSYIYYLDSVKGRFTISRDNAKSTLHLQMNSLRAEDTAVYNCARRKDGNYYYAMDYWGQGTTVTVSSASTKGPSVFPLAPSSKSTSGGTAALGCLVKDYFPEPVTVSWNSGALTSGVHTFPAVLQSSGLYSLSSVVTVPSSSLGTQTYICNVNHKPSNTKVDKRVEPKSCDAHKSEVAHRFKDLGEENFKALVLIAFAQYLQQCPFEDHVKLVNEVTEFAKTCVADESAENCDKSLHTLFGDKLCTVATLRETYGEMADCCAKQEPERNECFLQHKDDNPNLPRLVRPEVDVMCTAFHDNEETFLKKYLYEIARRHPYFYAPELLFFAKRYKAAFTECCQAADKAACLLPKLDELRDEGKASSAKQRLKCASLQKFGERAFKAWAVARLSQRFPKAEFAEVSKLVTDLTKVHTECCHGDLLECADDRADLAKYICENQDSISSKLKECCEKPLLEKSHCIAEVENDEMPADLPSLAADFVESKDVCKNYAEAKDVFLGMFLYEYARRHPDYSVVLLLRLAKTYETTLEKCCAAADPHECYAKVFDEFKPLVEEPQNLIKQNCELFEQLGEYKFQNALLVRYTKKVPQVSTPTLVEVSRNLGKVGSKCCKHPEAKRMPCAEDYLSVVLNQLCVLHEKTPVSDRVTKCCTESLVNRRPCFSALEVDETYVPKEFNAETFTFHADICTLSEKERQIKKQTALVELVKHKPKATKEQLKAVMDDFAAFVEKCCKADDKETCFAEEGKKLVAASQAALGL
light: B9 light
notes: also called AB13351-C1
B11: human TL1A (ligand, UniProt O95150 72-251, looked up)
chain: LKGQEFAPSHQQVYAPLRADGDKPRAHLTVVRQTPTQHFKNQFPALHWEHELGLAFTKNRMNYTNKFLLIPESGDYFIYSQVTFRGMTSECSEIRQAGRPNKPDSITVVITKVTDSYPEPTQLLMGTKSVCEVGSNWFQPIYLGAMFSLQEGDKLMVNVSDISLVDYTKEDKTFFGAFLL
notes: also called hTL1A; TNFSF15

molecular target: T1, human DR3-Fc fusion protein; experiment: BIAcore SPR; human DR3-Fc amine-coupled to CM5 chip, Fab in flow; ratio of average Kd
Description: (§1) Briefly, target proteins are covalently immoblilzed to the BIAcore CM5 sensor chip (Cat #BR-1000-14 (Biacore Life Sciences, Piscataway, N.J.)) via amine groups using N-ethyl-N′-(dimethylaminopropyl) carbodilimide/N-hydroxysuccinimide chemistry. Empty flow cells can be used as controls negative for target binding and for background subtraction. Six different concentrations of antibody molecules (range 0 to 50 nM) are flowed over the polypeptide-derivatized flow cells at 15 μL1/min for a total volume of 50 μl. The amount of bound protein is determined during washing of the flow cell with HBS buffer (10 mM HEPES [pH 7.4], 150 mM NaCl, 3.4 mM EDTA, and 0.005% Surfactant P20). The flow cell surface is regenerated by displacing bound protein by washing with 20 μl of 10 mM glycine-HCL (pH 2.3). For kinetic analysis, the on and off rates are determined using the kinetic evaluation program in BIAevaluation 3 software using a 1:1 binding model and the global analysis method.
(§2) In order to confirm that the humanized variant antibodies were capable of binding to the extracellular domain of DR3, the Kd values of eight humanized Fab variants were determined by BIAcore assay. In this experiment, a human DR3-Fc fusion protein was covalently immoblilzed to the BIAcore CM5 sensor chip. Empty flow cells that were negative for anti-DR3-Fab binding were used for background subtraction.

Binder	Ratio of binding relative to H0L0-Fab
B1	0.94
B2	1.06
B3	1.28
B4	0.85
B5	1
B6	1.09
B7	1.46
B8	1.22

molecular target: T1, human DR3-Fc fusion protein; experiment: BIAcore SPR; human DR3-Fc amine-coupled to CM5 chip, Fab-HSA in flow; ratio of average Kd
Description: as §1
(§3) Additionally, H1L2-Fab and H5L2-Fab were fused to human serum albumin (See, Example 6) and similarly tested. The Kd values of H0L0-Fab-HSA, H1L2-Fab-HSA, and H5L2-Fab-HSA were determined by BIAcore analysis as described above.

Binder	Ratio of binding relative to H0L0-Fab
B9	0.6
B10	1.4

molecular target: T1, human DR3-Fc fusion protein; experiment: BIAcore SPR; human DR3-Fc amine-coupled to CM5 chip, Fab in flow; 1:1 model; average of n=2
Description: as §1, §2

Binder	Kd [nM]
B1	1.29
B2	1.46
B3	1.76
B4	1.17
B5	1.37
B6	1.5
B7	2.01
B8	1.67

molecular target: T1, human DR3-Fc fusion protein; experiment: BIAcore SPR; human DR3-Fc amine-coupled to CM5 chip, Fab-HSA in flow; 1:1 model; average of n=2
Description: as §1, §3

Binder	Kd [nM]
B9	3.06
B10	7.52

molecular target: T2, human DR3 receptor expressed on the …; experiment: Flow cytometry on HEK293F cells transiently expressing human DR3. 1 ug/mL human TL1A, detected with anti-TL1A-biotin polyclonal antibody and streptavidin-PE. No competitor.
Description: FIG. 4. Flow cytometry results of 11H08 binding to hDR3-expressing HEK293F cells. HEK293F cells transiently expressing human DR3 were used to test the ability of the whole 11H08 immunoglobulin molecule to inhibit human TL1A binding to DR3 (See, Example 2). HEK293F cells were incubated with 1 μg/mL of human TL1A in the presence of either an unrelated antibody (mIgG1) as an isotype control (known not to bind TL1A or DR3) or 11H08. […] The upper panels show binding of labeled TL1A either by itself or in the presence of an unrelated antibody (mIgG1).
The anti-DR3 monoclonal antibody 11H08 was assayed for its ability to inhibit human TL1A binding to human DR3 using techniques known to those skilled in the art. Briefly, HEK293F cells transiently expressing human DR3 were incubated with 1 μg/mL of human TL1A in the presence of either an unrelated antibody (mIgG1) as an isotype control that was known not to bind TL1A or DR3, or an anti-DR3 monoclonal antibody (11H08), for 20 minutes at room temperature. Binding was detected using an anti-TL1A-biotin polyclonal antibody followed by Streptavidin PE. The ability of the anti-DR3 monoclonal antibody to inhibit binding of TL1A to DR3 was measured by flow cytometry.

Binder	binding result
B11	binds
